In patent US20250354133A1, “SIALIDASE FUSION MOLECULES AND RELATED USES” (The Scripps Research Institute, priority 2022, published 2025):

Experiments:
[1] = system: HER2 positive SK-BR-3 human breast cancer cells; experiment: BiTE-induced T cell cytotoxicity by LDH release, SK-BR-3 target cells; assay type: cell-based
Method: To evaluate whether desialylation may enhance the susceptibility of tumor cells to BiTE-mediated cytotoxicity by T cells, we first constructed a BiTE molecule from a HER2-targeting scFv 4D5 and a human CD3-targeting scFv (4D5 BiTE). We then treated HER2 positive SK-BR-3 human breast cancer cells with a sialidase derived from Bifidobacterium longum subspecies infantis (B. infantis) to remove cell surface sialic acids. Following this procedure, treated cells were incubated with PBMCs from healthy human donors in the presence of 4D5 BiTE. Staining with FITC-Sambucus nigra agglutinin (SNA) that binds preferentially to sialic acid attached to terminal galactose in an a-2,6 linkage confirmed the success of cell surface desialylation. […] A similar trend was observed when 4D5 BiTE treatment was combined with a sialylation inhibitor, P-3Fax-Neu5Ac (FIG. 1, b). Next, we treated SK-BR-3 and MCF-7 breast cancer cells with 4D5 BiTE and hPBMCs in the presence or absence of B. infantis sialidase, respectively. […] The cytotoxicity enhancement is also observed with a different E: T ratio of 1:1 and the improvement of the BiTE-induced killing was sialidase dose-dependent.
(§1) Cell cytotoxicity measurement by lactate dehydrogenase (LDH) release: T cell cytotoxicity induced by BiTEs and BiTE-sialidase fusion proteins was measured by lactate dehydrogenase (LDH) release using CytoTox 96® Non-Radioactive Cytotoxicity Assay (Promega, G1780). tumor cells and hPBMCs (tumor cell:hPBMC=1:5) per well in […] media were exposed to different treatments and incubated in 96 well plates at 37° C. (unless different ratio was specified elsewhere). After 24 hours of coincubation, […] of media supernatant from each well was transferred to a new flat bottom 96 well plate and LDH release was measured using the supplier's protocol.

[2] = system: CD19+ (Daudi) and EGFR+ (A549) cells; experiment: BiKE-sialidase desialylation selectivity in co-culture; assay type: cell-based, human; conditions: 10 nM, 1h, serum-free medium, SNA or MALII staining
Method: We compared the desialylation activity and selectivity of BiKE-CD19-Sia and BIKE-EGFR-Sia in a co-culture assay comprising CD19+ (Daudi) and EGFR+ (A549) cells, respectively. 1:1 ratio of daudi cells and A549 cells were treated with PBS, 10 nM BiKE-CD19-Sia or 10 nM BiKE-EGFR-Sia for 1h in serum-free medium, followed by staining with SNA-biotin (targets α2,6-linker sialoglycans) or MALII-biotin (targets α2,3-linker sialoglycans) in HBSS buffer for 30 min. Next, the cell mixtures were stained by streptavidin-APC and EGFR-Pc5.5.

[3] = system: MCF-7 breast cancer cells; experiment: BiTE-induced T cell cytotoxicity, MCF-7 target cells; assay type: cell-based, human
Method: (§2) To evaluate whether desialylation may enhance the susceptibility of tumor cells to BiTE-mediated cytotoxicity by T cells, we first constructed a BiTE molecule from a HER2-targeting scFv 4D5 and a human CD3-targeting scFv (4D5 BiTE). We then treated HER2 positive SK-BR-3 human breast cancer cells with a sialidase derived from Bifidobacterium longum subspecies infantis (B. infantis) to remove cell surface sialic acids. Following this procedure, treated cells were incubated with PBMCs from healthy human donors in the presence of 4D5 BiTE. Staining with FITC-Sambucus nigra agglutinin (SNA) that binds preferentially to sialic acid attached to terminal galactose in an a-2,6 linkage confirmed the success of cell surface desialylation. […]
as §1, with “(unless different ratio was specified elsewhere).” left out

[4] = system: PSMA-positive PC3 cells; experiment: PSMA BiTE-induced T cell cytotoxicity, PC3 target cells; assay type: cell-based, human; conditions: sialidase and PSMA BiTEs added at the same time
Method: as §2
as §1, with “(unless different ratio was specified elsewhere).” left out

[5] = system: T cells; experiment: T cell surface activation markers (CD25, CD69, CD107a) by flow cytometry; assay type: cell-based, human; conditions: with 4D5 BiTEs
Method: (§3) Cytokine release and T cell surface activation marker measurement: For T cell cytokine release measurement, as with the cytotoxicity experiment, tumor cells and hPBMCs (tumor cell:hPBMC=1:5) were co-incubated per well in 96 well plates with different treatments in […] media at 37° C. for 24 hours. Then, […] of supernatant from each well was diluted in […] DPBS and used for IFN-γ, IL-2 and TNFα measurement. The ELISA measurement was done by ELISA MAX™ Sets. IFN-γ, IL-2 and TNFα kits (BioLegend) and the experiments were done according to the manufacturer's protocol. The exact concentration was calculated from a standard curve. For the cell surface activation marker measurement, tumor cells and hPBMCs (tumor cell:hPBMC=1:5) were co-incubated per well in 12 well plates with different treatments in 1 mL media at 37° C. for 24 hours. […] Cells were then washed twice with FACS buffer (PBS with 2.5% BSA) before being analyzed using flow cytometry. Data analysis and mean fluorescence intensity calculation were done by Flowjo. For the transcriptome analysis, 1.2 million hPBMCs and 0.1 million MDA-MB-231 cells were incubated together under the treatment of either 4 nM 4D5 BiTE or 4 nM 4D5 BiTE-sialidase (Three replicas for each condition). […]

[6] = system: T cells; experiment: T cell cytokine release (IFN-γ, IL-2, TNFα) by ELISA; assay type: cell-based, human; conditions: MCF7 cells incubated with hPBMCs and BiTE
Method: as §3

[7] = system: immune synapse between T cells and tumor cells; experiment: BiTE-induced immune synapse formation, confocal imaging of CD3 and actin; assay type: cell-based, human
Source text: Formation of the BiTE-induced immunological synapse (IS) between target cells and T cells is the essential mode of action of BiTEs. We hypothesized that the removal of cell-surface sialosides may promote stronger BiTE-induced IS formation between target tumor cells and T cells and thus better tumor cell killing. Accumulation of the TCR-CD3 complex and F-actin at the synapse is a hallmark of a stable and functional cytolytic IS in T cells. To test whether desialylation can promote IS formation, we imaged the IS formed between T cells and sialidase-treated and non-treated SK-BR-3 cells by staining F-actin and CD3. The resulting immunofluorescence was imaged by confocal microscopy. […] To assess the stability of the IS formed, we calculated the relative CD3 fluorescence intensity at the IS and the relative area of the IS.
Staining of human […] and actin for confocal imaging: Briefly, 0.4 million tumors cells were treated with 4 nM 4D5 BiTE or 4 nM 4D5 BiTE with 15 mg/ML sialidase in […] DMEM without the serum for 1 hr at 37° C. After the incubation, all the samples were washed twice using PBS before incubating with 0.4 million hPBMCs in 500 ml PBS for 30 min at 37° C. Then all the cells were transferred in 1 ml PBS to the coverslips in 12 well plates and incubated at 37° C. for 30 min to let cells attach to the coverslip. 1 ml 4% PFA was added to each well and incubated with shaking for 20 min at room temperature (RT) for cell fixing, and then each well was washed twice with ice cold PBS. […] PBST was used for washing for three times before anti-rabbit 488 (Invitrogen, 35553) and anti-mouse 594 ((Invitrogen, A-11005) secondary antibody was diluted and used for staining at RT for 30 min with shaking. Finally, samples were washed three times and each coverslip was transferred to a glass slide with mounting oil. Fingernail oil was used to seal the coverslip. Samples were analyzed on a Zeiss LSM880 with a 63× oil lens (NA 1.4). The relative mean fluorescent intensity (MFI) of […] accumulation and relative contact area of IS was calculated by imageJ.

[8] = vs 4D5 BiTEs+hPBMCs and sialidase+hPBMCs controls
[9] = sialidase-treated vs untreated SK-BR-3 cells, 4D5 BiTE

For “recombinant human CTLA-4: a high affinity ligand of CD80 [reference compound]”, the “desialylation-enhanced cytolysis with added CTLA-4” value ([1]; high concentrations of CTLA-4 added with sialidase and 4D5 BiTE) was “no change in the enhanced cytolysis”.

B1: BIKE-EGFR-Sia: anti-EGFR BiKE-sialidase fusion, TAL4S format, SEQ ID NO: 28 (protein)
chain: QVQLQESGPGLVKPSETLSLTCTVSGGSVSSGSYYWSWIRQPPGKGLEWIGYIYYSGSTNYNPSLKSRVTISVDTSKNQFSLKLSSVTAADTAVYYCARNPISIPAFDIWGQGTMVTVSSGGGGSGGGGSGGGGSQPVLTQPPSVSVAPGKTARITCGGNNIGSKSVHWYQQKPGQAPVLVIYYDSDRPSGIPERFSGSNSGNTATLTISRVEAGDEADYYCQVWDTSSDHVLFGGGTKLTVLGGGGSQVQLVQSGAEVKKPGESLKVSCKASGYTFTSYYMHWVRQAPGQGLEWMGIINPSGGSTSYAQKFQGRVTMTRDTSTSTVYMELSSLRSEDTAVYYCARGSAYYYDFADYWGQGTLVTVSSGGGGSGGGGSGGGGSSYVLTQPSSVSVAPGQTATISCGGHNIGSKNVHWYQQRPGQSPVLVIYQDNKRPSGIPERFSGSNSGNTATLTISGTQAMDEADYYCQVWDNYSVLFGGGTKLTVLGGGGSGGGGSGGGGSGGGGSMTENGMMNTNNTVCGANHDGAMSLAAPGDYGVACYRIPALAEAPNGWILAAFDARPHNCQDAPQANSIVQRISKDGGRSFEPQHVVAAGHDGVDKYGYSDPSYVVDRQTGEVFLFFVKSYDAGFGTSQAGVDPSAREVLQAAVTSSIDNGVTWSEPRIITADITNSESWISRFASSGAGIQLTYGEHAGRLIQQYTIKELDGRYRAVSVFSDDHGATWHAGTPVGDHMDENKVVELSDGRVMLNSRSSDGNGCRYVAISRDGGATYGPVIRETQLPDPENNAQIARAFPDAPEGSAQAKVLLYSSSSPSDRIDGLVRVSIDDGKTWSAGRRFTTGPMAYSVIAALSHKAGGGYGLLYEGDNNNIMYTRISLDWLNGQLNVDGIGGFPLSGEGGC
In the case of B1, the selective desialylation activity [2] is reported as “selective desilylation activity”.

B2: B. infantis sialidase: sialidase derived from Bifidobacterium longum subspecies infantis, SEQ ID NO: 5 (protein, listed as Bifidobacterium longum)
chain: MTENGMMNTNNTVCGANHDGAMSLAAPGDYGVACYRIPALAEAPNGWILAAFDARPHNCQDAPQANSIVQRISKDGGRSFEPQHVVAAGHDGVDKYGYSDPSYVVDRQTGEVFLFFVKSYDAGFGTSQAGVDPSAREVLQAAVTSSIDNGVTWSEPRIITADITNSESWISRFASSGAGIQLTYGEHAGRLIQQYTIKELDGRYRAVSVFSDDHGATWHAGTPVGDHMDENKVVELSDGRVMLNSRSSDGNGCRYVAISRDGGATYGPVIRETQLPDPENNAQIARAFPDAPEGSAQAKVLLYSSSSPSDRIDGLVRVSIDDGKTWSAGRRFTTGPMAYSVIAALSHKAGGGYGLLYEGDNNNIMYTRISLDWLNGQLNVDGIGGFPLSGEGGC
For B2, the “4D5 BiTE-induced tumor cell killing by T cells after sialidase treatment” value ([1]; tumor cells pre-treated with sialidase, hPBMCs, effector:target 5:1, vs 4D5 BiTEs alone) was “significantly potentiated the 4D5 BiTE-induced tumor cell killing”, the “killing with 4D5 BiTE and hPBMCs in presence of sialidase” value [1, 8] was “stronger killing” and the “BiTE-mediated target cell killing with sialidase treatment” value ([3]; purified T cells as effectors) was “better BiTE-mediated target cell killing”. For the same molecule, the “killing with 4D5 BiTE and hPBMCs in presence of sialidase” value [3, 8] was “stronger killing”, the “PSMA BiTE-induced cytotoxicity with sialidase” value [4] was “stronger cytotoxicity enhancement” and the “T cell activation (CD25 and CD69 expression) on addition of sialidase” value [5] was “significantly enhanced”. For the same molecule, the “IFN-γ secretion on addition of sialidase” value [6] was “significantly enhanced”, the “BiTE-induced immune synapse formation” value ([7]; SKOV-3 cells and T cells, with sialidase treatment) was “better IS formed” and the “CD3 accumulation at the immune synapse” value [7, 9] was “significantly stronger CD3 accumulation”. The “relative immune synapse area” value [7, 9] was “larger IS area”.
